Key:
[1] = target: T1, thrombin (UniProt P00734;P00734 328-363;364-622); experiment: competitive hybridization, CD of DNA origami chiral plasmonic probe; 170 nM thrombin, n=7-11 bp at aptamer 3' end; R2=0.97; Binding buffer, pH and temperature not given in the material shown; origami assembled in TE with 20 mM MgCl2 and 5 mM NaCl; thrombin 170 nM
[2] = target: T1, thrombin; experiment: competitive hybridization, CD of DNA origami chiral plasmonic probe; 170 nM thrombin, n=7-11 bp at aptamer 5' end; R2=0.94 (below the authors' 0.95 validity threshold); Binding buffer, pH and temperature not given in the material shown; origami assembled in TE with 20 mM MgCl2 and 5 mM NaCl; thrombin 170 nM

Binder: GGTTGGTGTGGTTGGTTTAGAGTGAGCAGAG (structured_DNA) [thrombin DNA aptamer, 3' bridge lock (complement hybridizes at aptamer 3' end)]
- Kd [1]: 46.7 nM

Binder: CTAGCGAGCGAACTTTGGTTGGTGTGGTTGG (structured_DNA) [thrombin DNA aptamer, 5' bridge lock (complement hybridizes at aptamer 5' end)]
- Kd [2]: 235 nM
